Laboratory results published in FireProtDB (doi:10.1021/acs.biochem.7b01284).
Values joined by “and” are separate entries in the source; they are usually repeats but may differ in a detail not shown here. Equal values may be shown once.

B1: Geranylgeranylglyceryl phosphate synthase, O26652 (parent)
chain: MKVEDYFHDILRERKIHLTLIDPEEQTPEEAVEIARAAIRGGTDGIMLGGSTTDSSELDNTARALRENIDVPIILFPGNTTGVSRYADAIFFMSLLNSTNPYWIIGAQALGAATVKKMGIEALPMGYLVVEPGGTVGWVGDTKPVPRNKPDIAAAYAMAAEFLGMRLFYLEAGSGAPEHVPEEMIALVKRCTDQILIVGGGIRSGEDAARVAGAGADVVVTGTVVENSDNVEDKIREIVEGMGSV

Variants of: B1
Conditions: Methanothermobacter thermautotrophicus (strain ATCC 29096 / DSM 1053 / JCM 10044 / NBRC 100330 / Delta H); pH 7.5; Thermal; DSF; potassium phosphate buffer; reversible: no; structure 4MM1; whole UniProt chain shown

Variant	Tm [°C]
R85E	53.9
K143A	66
D54R	52.2

Same assay, conditions: Methanothermobacter thermautotrophicus (strain ATCC 29096 / DSM 1053 / JCM 10044 / NBRC 100330 / Delta H); pH 7.5; Thermal; DSC; potassium phosphate buffer; reversible: no; structure 4MM1; whole UniProt chain shown

Variant	unfolding enthalpy (calorimetric)	Tm [°C]
K143A	100 kcal/mol	
W138A	106 kcal/mol and 78.2 kcal/mol	
D54R	187 kcal/mol and 88 kcal/mol	
A159E	173 kcal/mol	64
Y102A	104 kcal/mol and 108 kcal/mol	
